25 sequences from a protein production outcome set (Wang et al. 2014) can be followed below.

A short description of this series: label from the status in PepcDB records.
As for “MSGSLEIPGLDDGLLPVETGYGLFQGTAKKRVVICNDNDKFRHSGPLPRALCGSFAAIGLLPLPVVETRPAPPPKVAPITPALQGKACGQAVFEGLRNKNAVETVDNLPALRQTARTGKRWKALESLMQETPAIIYKIVPETLWTAARAEGMFEGAAIDLTDGFIHFSTAKQVAETAARHFSGQVDLLLIAVDGAALGDKLVYEPSRGGDLFPHLYAPLPFSAVLWETPLSLDHDGQHQFPEILLEHHHHHH”, the protein production result was “failed”.
Consider “MSGTLLAFDFGTKSIGVAVGQRITGTARPLPAIKAQDGTPDWNIIERLLKEWQPDEIIVGLPLNMDGTEQPLTARARKFANRIHGRFGVEVKLHDERLSTVEARSGLFEQGGYRALNKGKVDSASAVIILESYFEQGY”, for which the protein production entry is “not failed”.
“MSGVRFPSGSLKDVRFFLHLFFSSKYGIIYVRYLDEEGTIMKQIIISVGREFGSGGHIVAQKLAEHYDIPIFNKELLEEMARKEGYSEKALEKYDEKPVNFGFMPLPYAGGNIPIEQEIAMKQFEFIKNKADAGESFVIVGRCADEILAYNPNLVSVFITGDRESKIARVMDREGLDRKQAINKMKRMDKIRKTYHNFYCRNKWGDSRGYDICINTGKTDFDTAKNMVVECVDKLKERSE”: the protein production entry is “failed”.
“MSGWYELSKSSNDQFKFVLKAGNGEVILTSELYTGKSGAMNGIESVQTNSPIEARYAKEVAKNDKPYFNLKAANHQIIGTSQMYSSTAARDNGIKSVMENGKTTTIKDLTLEHHHHHH”: the protein production result is listed as “not failed”.
Regarding “MSHAIQIREAHFPGRAPIDAYGNGGFRFADMSHRGSIICIPSGIYGIDMTGPVPTQEDISRVLEESDQIEVLLIGTGVELLRLPEELRVLLWEKRISSDTMSTGAAVRTFNVLLAEDRAVAALLFAVE”, the protein production result was “not failed”.
Regarding “MSHCSCHDKPQHSLLPAAYRILSITRHTPLEWNFRVAVDFPAHWGQFVEVSLPRVGEAPISVSDYGDGWIDLLIRNLGKVTSALFTLKEGDNVWLRGCYGNGYPVDTLRHKPLLVVAGGTGVAPVKGLMRYFVENPQEIGQLDMILGYKNRDCVLYKEEMATWRGKHNLVLTLDEGEADDRYQIGRVTDRLADMTLSDIDTMQAIVVGPPIMITFTVKMLLQKGLKPEQIWVDYERRMACSVGKCGHCRMGEVYVCTDGPIFNYAVAQRFAD”, the protein production result is on record as “failed”.
Consider “MSHHNPLVSVVIPSKNRPDLVIATLVSVIDQTYDNIEIIVVDDGSDMPLAPLLKDRFSDRVLCLRNDQSLGGAVARNRGAQSAHGDYITFLDDDDLWLPKKLEMQVDAFSKHGVDIGVVYCGFDFLCKEEIVPRQNKFHNDYDLSIAVLSGCPFGSPTPLIRKHYFDMVGGFDRELPSCQDWDLWIRLSKVCGFYPVKESLALYRVHGDQISTNLRKKIDGRKMVLAKHYDEIKNYPRVLSAHYSRIGSLCVLADEHVEARDFFSKALASNMFDGGSFVHLVLQFLCRPLEKWLIERFSVNTIDGIKVIHLEHHHHHH”, for which the protein production result was “failed”.
For “MSHHVQREIRYNFEFDHRIRACFIGAGGHAYRNVYPALRYAPVELSGICDLDIGRAEKFAKLFGAGKAYTDHREMLEQEKPELVFLVTAYHPDGRVQATDLALDALASGAHVWMEKPTAASLEDIERLQAASAAAGRMVMTGLKKTFFPTIEKLRDLIGSPGFGRLTSINVRYPQSLPGQEDRADLVKMQSFLDHIYHPGAILHFLGGEIERAGYEWEALTGATITSLRFHSGAIGTLHLAAGQSGSSIFERVEIIGEGANAIVENGSRLTYFRKADLPSYGRAASFIQPDENAALFYEPEHSLGQLYNNNLFYLGYVPEILHLTDAILSGTPISRGTLEIAREIMKLFEFYRRTDAGVTTNL”, the protein production entry is “failed”.
For the sequence “MSIDIQLFYLPLHTNNPLILNKQMKLRNVSAGIVLCLTMVSCIQDEALNVEAAIDGCSGTNIQLSTINPSSKTASIYVSKSTDLSALEIKFTLPDGASIEPVNAIANDAPPKYDFSTSQIPITPEQTLEQYQRKFRVTSESETTEAVYTITVIKSELPTNFHFENLVDGSSDYHELYEFNQQQGETLQWASGNPGFKLTGMAKSPFDYPTLQTEGYIGKGIRLETKSTGDFGEKVKMPIAAGNLFIGTFIVKDALRDAKAATKFGFPFFKHPKTLKGYYKFQPGTVYISGTDENRKPIIDPSMEGKDKGDIYAVLYEADDVEDFLDGYNSLNSNKIIALARIPSIEKTSEWKQFELPFEYKKAIDESALKEGKYKLAVVFSSSINGAEFKGSVGSTLWIDEVTIQCKEDNE”, the protein production result is “failed”.
On to “MSIDWAALGSVFGVSLVVTVGLVGLFTLGIVGLTKKESAEGGSAALATTGAYACFAACAAAVAYGIYLIVA”, for which the protein production entry is “failed”.
The same measure for “MSIEATLLARCESKCELCSSESPLTAYAVPPHGNVTVDTAIMVCDKCHSEIEEPKDINHWRCLNESMWSQVPAVQVTAWRQLTRLNSESWAQDALDMMYMEEEQKNWAMTGMSADDKTVDCNGTELKKGDDVTVIKDLPVKGTNQVIKQGTVIRGISLGDDPKLISGKANGGQSMYVIAEYCRKKLEHHHHHH”: “failed”; for “MSIEKKVGFFFIAGLVLLGVMLELGEKWNPFQKAIPYKTYLSSTTGLKLGDPVRLAGVEVGKITKIAIADSRVEVAFEVKPGTAIKADSVATIRLTNLLGGQFLGLSFGSPDAPVLPPGSAVKSRETANIDVIVDNVGDLAKDAKVLIKDLTVNQKEVFQKVSSMLDENRGNLRGAIENMNSITTKMDRGQGSLALLLNDKSLYRNTNELAASMKNVTAKIEKGEGSLGKFVNDDAFYRDAKGAVANLNDGAKDIKEIAAKINRGEGSVGKLVNDESLYNELRDASKNVGEVAKKINNGQGTLGKLVNDDTLYRDTTAAMKKLDKATEGLSDTGPISVIGSMVGTLFLEHHHHHH”: “not failed”; for “MSIEPDGTVNRPEENIHLLQLHDSPVMRWLYLSIGMTALFMGILGIFLPILPTTPFILLAAGCFARSSERFHSYLLNHRIAGPIIREWCEYRSVARHVKRWAYLVMALSFGSSILIVSSWWLKGMLALLAMILFTFIWRLPVRDQSR”: “failed”.
Regarding “MSIFTAAMIALVYWISQAKVWYGFSIMRMPLSIAPIMGLIFNDMPTALSVGATLQMIYIGSIAPGGNPPADEGLASCIAIPIALTAGIKPEIAISLAIPLGLLGVVLENVRKTLNTTFIHMADRYAEKGDIKGIQRAATIYPLLLAFPMRFVPVFIACLYGPDAIASFVNLLPAWSTNGLAIAGNILPALGFAITIIVIGKKQYIPLFIIGFFLVTYSGLNTIGISIFGLCAVLLYMQSQNTKGTKNG”, the protein production entry is “failed”.
With “MSILHTVNKSPFERNSLESCLKFATEGASVLLFEDGIYAALAGTRVESQVTEALGKLKLYVLGPDLKARGFSDERVIPGISVVDYAGFVDLTTECDTVQAWL”, the protein production entry was “not failed”.
“MSILKVIKQKWVALGALLGSGALVGLSTNLAKVAYGQDLAPFPFLTWSLAGATLILGSISFLTKQTPPTNTGAIKYYFIAGFFSVAGSNLILFSAVSHVGVSFVVLVISLTPIFTYIAALALGMEIFSRWRVASVIFSLAGTALLVTAKLSLPETNHLWILITLIGPVLLASGNIYRTSHWPKGAKPESLAPGMLLAATATLVLAAISIQGVSLFALFNTENIGLIVLQSIIFSGQFLLLFVLQKAGGPVFLSLTGAVSAAFGIPFAMALLDEPMLPALAPSALLIVTGIIFMMKEQAISNA”: the protein production entry is given as “failed”.
As for “MSILTIILIVLLVILLFKVGLSILRFLISVGIVLLCIYLGYQGVLWLFEHFQNFSGFIQ”, the protein production entry is “failed”.
The same measure for “MSIMKDPNHSPHSGGMLLGFIGVAIFSQTLPFTRMAVAELDATFVALGRAVIAAALALALLAMRGALASGRRPRGGQWLRLAVTALGVVVGFPVFSSLAMREVPSGHGAIVIGLLPLATAVFAAWFGNERPSLGFWLSALAGSALVVAFALWQGAGGLQHADWYLFLAVVLGALGYAEGGKLSRELGGLETISWALVVSLPVLAPVVAWLGLEHAASIAAASPRAWLGMAYVSVFSMFIGFLFWYAGLAKGGVARVGQIQLLQPFLTLAGGALILAEPLDAATVAFAVAVIAVVALGRRAAVRNTAPAMPLASAAEEAPPILPGRLH”: “failed”.
“MSINIDSGQDSDQEHDDVMYPQVLPFVLIHAGCLAAIWSGVSWQAVAICVALYWLRMFGITAGYHRYFSHRAYATSRAFQFILAFLAQSSAQKSVLWWAAKHRHHHLHSDTAQDVHSPRHKGFVYSHLGWIFYRQHDATDLVKVSDLASYPELMWLHRLELLPAVVLAGLCFLIAGWSGLVVGFMWSTVVLYHATFCINSLAHVHGRRRYVTGDDSRNNWLLALLTMGEGWHNNHHAYQASARQGFYWYEVDLTYYALVALSWLGIVWDLKLPPRQVLRNEHRLGSRVVKQAAEQLAARFDPEHIALAIRTSIHETELSVRDALSLLQHRADLRLSSMPTREQLLAEAQRMFAKTISLDDIVDRAYELLHDSVGFLLATPALSANTNAKSGI”: the protein production entry is listed as “failed”.
“MSINIISIVSIIIWILLITELIKPSKEQNGRKIVTLVTAGSASTLILTVSFIQNIPFWN”: the protein production result is given as “failed”.
Take “MSINLQLETPRLLLREFQNSDKVAFAAYRSDPGTAKYQSWDTPYSEAQAEAFIESLQHLTSSILGEWYQLAIELKSTRQIIGDCAFCILAEDGKQGEIGFTLARKYQGNGYGTEAVIFLLNYLFNHLNLHRVRANCDPENLASIKLLERVGMRLEGRFIKSLWFKNNWVDEMWFAILQDEFTAVNV”: the protein production result was “failed”.
The same measure for “MSINLRSSGCSSPISATLERRLDSEVQTRANNVSFEQTKEKIRKMLEKVELSVSAYDTSWVAMVPSPSSQNAPLFPQCVKWLLDNQHEDGSWGLDNHDHQSLKKDVLSSTLASILALKKWGIGERQINKGLQFIELNSALVTDETIQKPTGFDIIFPGMIKYARDLNLTIPLGSEVVDDMIRKRDLDLKCDSEKFSKGREAYLAYVLEGTRNLKDWDLIVKYQRKNGSLFDSPATTAAAFTQFGNDGCLRYLCSLLQKFEAAVPSVYPFDQYARLSIIVTLESLGIDRDFKTEIKSILDETYRYWLRGDEEICLDLATCALAFRLLLAHGYDVSYDPLKPFAEESGFSDTLEGYVKNTFSVLELFKAAQSYPHESALKKQCCWTKQYLEMELSSWVKTSVRDKYLKKEVEDALAFPSYASLERSDHRRKILNGSAVENTRVTKTSYRLHNICTSDILKLAVDDFNFCQSIHREEMERLDRWIVENRLQELKFARQKLAYCYFSGAATLFSPELSDARISWAKGGVLTTVVDDFFDVGGSKEELENLIHLVEKWDLNGVPEYSSEHVEIIFSVLRDTILETGDKAFTYQGRNVTHHIVKIWLDLLKSMLREAEWSSDKSTPSLEDYMENAYISFALGPIVLPATYLIGPPLPEKTVDSHQYNQLYKLVSTMGRLLNDIQGFKRESAEGKLNAVSLHMKHERDNRSKEVIIESMKGLAERKREELHKLVLEEKGSVVPRECKEAFLKMSKVLNLFYRKDDGFTSNDLMSLVKSVIYEPVSLQEESLT”: “failed”.
In the case of “MSIPNHVSTTEVVLLELEILLTIISIGAWGGFVSYLLRKDKTEYNSSHESIKYCLTQIVISCFTSFLLSAIAIEKECSFNIVLLAAGLGGVFASPILKILGRRIKKIIEGNNSD”, the protein production result was “failed”.
As to “MSIPTDVVSLQIMAQVYQKKGLQSIFKKTVESLVEHVPYIDWAGIYMYDQLDYKLVAASNFEEDLRWDCNGELKFPIKNNEDKEVGMLIVRTLQPIAFDVTDVSTLETIATAIGQESYAN”, the protein production entry is on record as “failed”.
Take “MSIRILPENEIKPSASAFEIPPLLFANPKNLYTRRAKRLRELAKNNPLRDYLEFAAHLVDIQLTLLETAPIGNYAEKLTAYLTENQGQKPLNKQQFARDEKWLELLLALIKQCKPYATGAILTTLEFLEKASYAELNNLADHLLNERYEQVSPDQSVFIWLALSLYWTQLAQQLPRHTQAEIGERHTCPVCGSAPITSVIHLDKTQGLRYLHCALCESEWNMTRAQCSNCDESGDLNYWSFDTVEAPIKAESCGDCHSYLKVLYQEKDPYVEPLADDLASLMLDIEMEQKGFVRSGLNPFLFSIE”: the protein production result was “not failed”.
